Source: patent US20230227567A1 (SELVAX, published 2023)

Key:
[1] = molecular target: T1, CD40 expressed on the surface of human peripheral blood mononuclear cells (human, UniProt P25942 21-277); test: flow cytometry on human PBMC
T1 construct: Native CD40 on primary human cells (PBMC, B cells, monocyte-derived dendritic cells); also called native CD40 protein; CD40 on the surface of B cells
Protocol: PMBC were stained with an anti-human CD19 antibody labelled with PE. […] Lymphocytes were gated based on FSC-A and SSC-A signals.
FACS staining was carried out on 10⁶ human PBMC per well. […] Cells were washed twice with FACS buffer and resuspended in 20 μl of BV421 anti-mouse Ig diluted in FACS buffer and incubated for 30 minutes. Cells were washed twice with FACS buffer and resuspended in 20 μl of PE anti-human CD19 diluted in FACS buffer and incubated for 30 minutes. Cells were washed once with FACS buffer and once with PBS and resuspended in 100 μl of 1% formaldehyde in PBS and incubated for 20 minutes. Cells were washed twice with FACS buffer and resuspended in 200 μl of FACS buffer for analysis.
FACS staining controls included an unstained control, PE anti-human CD19 and BV421 mouse anti-human Ig single stain controls and human IgG1 isotype control. Cell staining was analysed using a FACS Canto II flow cytometer (BD). PMT voltages and gates for analysis were set using the FACS staining controls.

[2] = molecular target: T2, recombinant human CD40 extracellular domain with a C-terminal human IgG1 Fc domain and 6His tag (BioLegend) (human); test: SPR Biacore T200, SVX-3001 amine-coupled to CM5, CD40-Fc analyte, 1:1 model; value 1
T2 construct: Bought reagent; also called CD40-Fc
Protocol: (§1) Method: Kinetic analysis by surface plasmon resonance (SPR) was carried out using the Biacore T200 (GE Healthcare). HBS-EP+ buffer was used as running buffer throughout.
(§2) Target immobilisation level: 600 RU. Wash solution: Ethanolamine.
(§3) Injection parameters for the sample were contact time: 120 seconds, flow rate: 30 μI/min, dissociation time: 300 seconds. Injection parameters for regeneration were contact time: 30 seconds, flow rate: 30 μI/min, stabilisation period: 0 seconds. Regeneration solution was either 10 mM glycine-HCl buffer pH 1.5 or 50 mM NaOH. The concentrations of CD40-His and CD40-Fc used for the kinetic analysis were […]. The model 1:1 binding was used for curve fitting.

[3] = molecular target: T2, recombinant human CD40 extracellular …; test: SPR Biacore T200, SVX-3001 amine-coupled to CM5, CD40-Fc analyte, 1:1 model; value 2
Protocol: as §1, §2, §3

[4] = molecular target: T2, recombinant human CD40 extracellular …; test: SPR Biacore T200, SVX-3001 amine-coupled to CM5, CD40-Fc analyte, 1:1 model; value 3
Protocol: as §1, §2, §3

[5] = molecular target: T3, recombinant human CD40 extracellular domain with C-terminal 6His tag (Novoprotein) (human); test: SPR Biacore T200, SVX-3001 amine-coupled to CM5, CD40-6His analyte, 1:1 model; value 1
T3 construct: Bought reagent; also called CD40-6His; CD40-His
Protocol: as §1, §2, §3

[6] = molecular target: T3, recombinant human CD40 extracellular …; test: SPR Biacore T200, SVX-3001 amine-coupled to CM5, CD40-6His analyte, 1:1 model; value 2
Protocol: as §1, §2, §3

[7] = molecular target: T3, recombinant human CD40 extracellular …; test: SPR Biacore T200, SVX-3001 amine-coupled to CM5, CD40-6His analyte, 1:1 model; value 3
Protocol: as §1, §2, §3

[8] = molecular target: T2, recombinant human CD40 extracellular …; test: SPR Biacore T200, SVX-3001 amine-coupled to CM5, CD40-Fc analyte, 1:1 model; average of three
Protocol: as §1, §2, §3

[9] = molecular target: T3, recombinant human CD40 extracellular …; test: SPR Biacore T200, SVX-3001 amine-coupled to CM5, CD40-6His analyte, 1:1 model; average of three
Protocol: as §1, §2, §3

T2 sequence (P25942 21-193): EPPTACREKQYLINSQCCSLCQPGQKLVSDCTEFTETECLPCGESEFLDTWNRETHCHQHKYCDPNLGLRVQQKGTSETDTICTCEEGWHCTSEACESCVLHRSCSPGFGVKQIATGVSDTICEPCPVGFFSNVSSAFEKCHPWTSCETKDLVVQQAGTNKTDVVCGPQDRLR
T3 sequence (P25942 21-193): as above
T1 sequence (P25942 21-277 limits assumed): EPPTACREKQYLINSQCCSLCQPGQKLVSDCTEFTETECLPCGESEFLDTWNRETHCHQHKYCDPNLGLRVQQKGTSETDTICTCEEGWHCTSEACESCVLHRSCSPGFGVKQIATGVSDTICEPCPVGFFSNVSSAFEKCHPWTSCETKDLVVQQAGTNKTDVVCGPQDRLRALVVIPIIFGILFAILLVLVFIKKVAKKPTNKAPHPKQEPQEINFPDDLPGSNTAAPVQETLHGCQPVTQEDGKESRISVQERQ

B1: Humanized anti-human CD-40 antibody SVX-3001 (antibody, human IgG1, kappa, V domains shown)
VH: QVQLQQSGPGLVKPSQSLSLTCAVSGYSITTNYYWNWIRQAPGKGLEWVGYIRYDGTTYYAPSLKGRFSITRDTSKNQFFLQLTSVTPEDTATYYCARLDYWGQGTLVTVSS
VL: DIVMTQSPLSLSVSLGDRASISCRSSQSLENSNGNTFLNWFQQKPGQSPQLLIYRVSNRFSGVPDRFSGSGSGTDFTLKISRVEAEDEGVYFCLQVTHVPYTFGGGTKLEIKR
notes: Human IgG1 heavy chain constant region and human kappa light chain constant region; made in HEK 293T cells, used as supernatant or Protein G purified; also called humanised agonist anti-human CD40 antibody; Selvax01
For B1, the binding result [1] was “binds”, the Kd [2] was 0.323 nM and the koff [2] was 0.000232 s⁻¹. It also gave a kon [2] of 717000 M⁻¹ s⁻¹, a Kd [3] of 1.12 nM and a koff [3] of 0.000555 s⁻¹. The kon [3] was 497000 M⁻¹ s⁻¹, the Kd [4] was 0.308 nM and the koff [4] was 0.000203 s⁻¹. It also gave a kon [4] of 661000 M⁻¹ s⁻¹, a Kd [5] of 5.33 nM and a koff [5] of 0.00381 s⁻¹. It also gave a kon [5] of 715000 M⁻¹ s⁻¹, a Kd [6] of 6.5 nM and a koff [6] of 0.00409 s⁻¹. It also gave a kon [6] of 628000 M⁻¹ s⁻¹, a Kd [7] of 6.51 nM and a koff [7] of 0.00375 s⁻¹. The kon [7] was 576000 M⁻¹ s⁻¹, the Kd [8] was 0.583 nM and the koff [8] was 0.00033 s⁻¹. The kon [8] was 621000 M⁻¹ s⁻¹, the Kd [9] was 6.11 nM and the koff [9] was 0.00388 s⁻¹. The kon [9] was 640000 M⁻¹ s⁻¹.
